From patent US20240374729A1 (published 2024)
Values belong to the binder of their own block, whether it stands above or below them.

What was measured:
[1] = target: T1, NY-ESO-1 peptide on HLA-A*02:01 (human); test: cytokine release
T1 peptide: SLLMWITQC

[2] = target: T2, PRAME peptide on HLA-A*02:01 (human); test: killing
T2 peptide: SLLQHLIGL

[3] = target: T3, PRAME peptide on HLA-A*02:02 (human); test: cytokine release
T3 peptide: SLLQHLIGL

[4] = target: T4, PRAME peptide on HLA-A*02:09 (human); test: cytokine release
T4 peptide: SLLQHLIGL

[5] = target: T5, PRAME peptide on HLA-A*02:04 (human); test: cytokine release
T5 peptide: SLLQHLIGL

- binding result [1]: recognises
B1: NY-ESO-1/LAGE-1 specific TCR of SEQ ID NOs 41 and 42 (TCR, V domains shown)
Valpha: QKEVEQNSGPLSVPEGAIASLNCTYSDRGSQSFFWYRQYSGKSPELIMFIYSNGDKEDGRFTAQLNKASQYVSLLIRDSQPSDSATYLCAADDKIIFGKGTRLHILP
Vbeta: DAGVIQSPRHEVTEMGQEVTLRCKPISGHDYLFWYRQTMMRGLELLIYFNNNVPIDDSGMPEDRFSAKMPNASFSTLKIQPSEPRDSAVYFCASSRGGSGYTFGSGTRLTVV

- binding result [3]: recognises
- binding result [4]: recognises
- binding result [5]: recognises
B2: T23.8-2.1-027-004 (TCR, V domains shown)
Valpha: GQQLNQSPQSMFIQEGEDVSMNCTSSSIFNTWLWYKQDPGEGPVLLIALYKAGELTSNGRLTAQFGITRKDSFLNISASIPSDVGIYFCAGLADYGGSQGNLIFGKGTKLSVKP
Vbeta: DSGVTQTPKHLITATGQRVTLRCSPRSGDLSVYWYQQSLDQGLQFLIQYYNGEERAKGNILERFSAQQFPDLHSELNLSSLELGDSALYFCASSVWASGGYEQYFGPGTRLTVT
- binding result [2]: recognises
